Experimental data as given in publication PMC3169606, “Pub1p C-Terminal RRM Domain Interacts with Tif4631p through a Conserved Region Neighbouring the Pab1p Binding Site” (PLoS ONE, 2011).

T1: Pub1p R3 (RRM3, TRRM) (Saccharomyces cerevisiae, UniProt P32588 315-414)
T1 sequence: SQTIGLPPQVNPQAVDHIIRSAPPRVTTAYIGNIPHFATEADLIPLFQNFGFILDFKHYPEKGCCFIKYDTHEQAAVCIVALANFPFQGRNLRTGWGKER

T2: Pub1p R12 (RRM1-RRM2) (Saccharomyces cerevisiae, UniProt P32588 32-242)
T2 sequence: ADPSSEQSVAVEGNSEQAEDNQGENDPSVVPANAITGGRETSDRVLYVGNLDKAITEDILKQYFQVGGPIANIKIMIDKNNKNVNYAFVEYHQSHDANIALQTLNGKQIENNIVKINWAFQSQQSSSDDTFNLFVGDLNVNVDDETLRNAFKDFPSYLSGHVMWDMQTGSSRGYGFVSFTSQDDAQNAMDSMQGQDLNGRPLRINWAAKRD

T3: Tif4631p (1–402) (Saccharomyces cerevisiae, UniProt P39935 1-402)
T3 construct: Cloned 'following equivalent methods' to the Pub1p constructs (same modified pET28 vector); Unlabelled or 15N-labelled according to the NMR experiment; source: E. coli BL21(DE3), purified (HisTrap, TEV digestion, second nickel column, anion exchange MonoQ); not shown: thioredoxin A, N-terminal, cleaved; His6, internal, cleaved
T3 sequence (looked up): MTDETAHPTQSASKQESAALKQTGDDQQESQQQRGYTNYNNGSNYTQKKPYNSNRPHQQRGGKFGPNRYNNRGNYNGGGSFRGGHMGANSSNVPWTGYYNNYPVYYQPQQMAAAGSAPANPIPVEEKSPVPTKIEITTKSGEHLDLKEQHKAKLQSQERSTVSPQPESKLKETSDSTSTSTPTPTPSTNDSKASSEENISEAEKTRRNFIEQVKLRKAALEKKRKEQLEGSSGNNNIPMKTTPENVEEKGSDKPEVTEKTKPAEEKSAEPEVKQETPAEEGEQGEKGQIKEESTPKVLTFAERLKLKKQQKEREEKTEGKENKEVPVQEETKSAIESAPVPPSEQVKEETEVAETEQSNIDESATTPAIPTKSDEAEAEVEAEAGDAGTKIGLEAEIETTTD

T4: Tif4631p (1–184) (Saccharomyces cerevisiae, UniProt P39935 1-184)
T4 construct: Tif4631p (yeast eIF4G1), Saccharomyces cerevisiae, residues 1-184; Cloned 'following equivalent methods' to the Pub1p constructs; source: E. coli BL21(DE3), purified (HisTrap, TEV digestion, second nickel column, anion exchange MonoQ); not shown: thioredoxin A, N-terminal, cleaved; His6, internal, cleaved
T4 sequence (looked up): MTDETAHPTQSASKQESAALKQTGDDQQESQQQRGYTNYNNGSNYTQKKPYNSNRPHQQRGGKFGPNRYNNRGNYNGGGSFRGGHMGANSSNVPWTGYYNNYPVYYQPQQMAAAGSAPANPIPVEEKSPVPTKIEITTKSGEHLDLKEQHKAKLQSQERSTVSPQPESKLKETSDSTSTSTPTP


Tests used:
Pub1p R3 (RRM3, TRRM) [1] = target: T1, Pub1p R3 (RRM3, TRRM); test: NMR titration; 1:1 protein:RNA; Kd n.d.; 25 mM potassium phosphate pH 7.0 (6.5-7.0 in general NMR methods), 25 mM NaCl, 0.5 mM DTT, 25 C; 100 µM protein, RNA up to 400 µM (R3) or 1:1 (R12); conditions: protein: recombinant; tags: TrxA-6xHis tag removed by TEV; chain copies: 2; single strand
Pub1p R3 (RRM3, TRRM) [2] = target: T1, Pub1p R3 (RRM3, TRRM); test: NMR titration; 2:1 protein:RNA; 25 mM potassium phosphate pH 7.0 (6.5-7.0 in general NMR methods), 25 mM NaCl, 0.5 mM DTT, 25 C; 100 µM protein, RNA up to 400 µM (R3) or 1:1 (R12); conditions: protein: recombinant; tags: TrxA-6xHis tag removed by TEV; chain copies: 2; single strand
Pub1p R12 (RRM1-RRM2) [3] = target: T2, Pub1p R12 (RRM1-RRM2); test: NMR titration; slow exchange; 25 mM potassium phosphate pH 7.0 (6.5-7.0 in general NMR methods), 25 mM NaCl, 0.5 mM DTT, 25 C; 100 µM protein, RNA up to 400 µM (R3) or 1:1 (R12); conditions: protein: recombinant; tags: TrxA-6xHis tag removed by TEV; single strand
Pub1p R3 (RRM3, TRRM) [4] = target: T1, Pub1p R3 (RRM3, TRRM); test: NMR titration; 1:1 protein:RNA; 25 mM potassium phosphate pH 7.0 (6.5-7.0 in general NMR methods), 25 mM NaCl, 0.5 mM DTT, 25 C; 100 µM protein, RNA up to 400 µM (R3) or 1:1 (R12); conditions: protein: recombinant; tags: TrxA-6xHis tag removed by TEV; chain copies: 2; single strand
Tif4631p (1–402) = target: T3, Tif4631p (1–402); test: NMR titration; 1H-15N HSQC of 100 µM 15N-labelled Tif4631p (1–402) with 120 µM unlabelled Pub1p R3 added; 25 mM potassium phosphate pH 7.0, 25 mM NaCl, 0.1 mM DTT, 25°C; conditions: both partners purified
Tif4631p (1–184) = target: T4, Tif4631p (1–184); test: cross-linking; glutaraldehyde by vapour diffusion, 16 h at 4°C; Pub1p proteins 10 µM, Tif4631p (1–402) 1 µM, Tif4631p (1–184) 4 µM; 25 mM potassium phosphate, 150 mM NaCl, 0.1 mM DTT, pH 8.0; 15% SDS-PAGE, silver stain; conditions: both partners purified
Pub1p R12 (RRM1-RRM2) [5] = target: T2, Pub1p R12 (RRM1-RRM2); test: NMR titration; intermediate exchange; 25 mM potassium phosphate pH 7.0 (6.5-7.0 in general NMR methods), 25 mM NaCl, 0.5 mM DTT, 25 C; 100 µM protein, RNA up to 400 µM (R3) or 1:1 (R12); conditions: protein: recombinant; tags: TrxA-6xHis tag removed by TEV; single strand

| Binder | binding result (Pub1p R3 (RRM3, TRRM) [1]) | Kd (Pub1p R3 (RRM3, TRRM) [2]) [µM] | also measured |
| --- | --- | --- | --- |
| UUUUUUUUUU (ssRNA) [U10] | binds | – | – |
| AAAAAAAAAAAAAA (ssRNA) [A14] | – | 78.5 | – |
| UUUUUUUUUUUUUU (ssRNA) [U14] | – | 2.16 | Kd (Pub1p R12 (RRM1-RRM2) [3]): < 0.25 µM |
| AGAGAGAG (ssRNA) [(AG)4] | – | – | Kd (Pub1p R3 (RRM3, TRRM) [4]): 88.3 µM |
| UAUAUAUAUAUA (ssRNA) [(UA)6] | binds | – | – |
| CUCUCUCUCUCU (ssRNA) [(CU)6] | – | – | Kd (Pub1p R3 (RRM3, TRRM) [4]): 18.8 µM |
| Pub1p R3 (RRM3 domain, residues 315–414) (domain or fragment, Saccharomyces cerevisiae, UniProt P32588 315-414, looked up, also called Pub1p TRRM; Pub1p RRM3; source: E. coli BL21(DE3), purified (HisTrap, TEV digestion, second nickel column, cation exchange); not shown: thioredoxin A, N-terminal, cleaved; His6, internal, cleaved) SQTIGLPPQVNPQAVDHIIRSAPPRVTTAYIGNIPHFATEADLIPLFQNFGFILDFKHYPEKGCCFIKYDTHEQAAVCIVALANFPFQGRNLRTGWGKER | – | – | binding result (Tif4631p (1–402)): binds; binding result (Tif4631p (1–184)): binds |
| UAUAUAUAUAUAUA (ssRNA) [(UA)7] | – | < 1 | Kd (Pub1p R12 (RRM1-RRM2) [5]): 0.894 µM |
| UUUUUUUUUUUU (ssRNA) [U12] | binds | – | – |
